Measured values reported in article PMC4098744, “Systematic family‐wide analysis of sodium bicarbonate cotransporter NBCn1/SLC4A7 interactions with PDZ scaffold proteins” (Physiological Reports, 2014).

Biological target: T1, PSD‐95 third PDZ domain (residue 307–446) (UniProt P78352 307-446)
T1 construct: also called PSD‐95 (3); PSD‐95 (domain 3); source: spotted on a PDZ array membrane (Zhang et al. 2007)
Experiment: peptide or protein array; PDZ filter overlay: 96 Class I PDZ domains spotted on a nylon membrane; overlaid with 100 nmol/L GST/NBCn1 (or GST only) in blot buffer (50 mmol/L NaCl, 2% dry milk, 0.1% Tween 20, 10 mmol/L HEPES; pH 7.4) for 1 h at room temperature; detected with HRP-conjugated anti-GST antibody; done three times
Settings: both partners purified

T1 sequence (P78352 307-446): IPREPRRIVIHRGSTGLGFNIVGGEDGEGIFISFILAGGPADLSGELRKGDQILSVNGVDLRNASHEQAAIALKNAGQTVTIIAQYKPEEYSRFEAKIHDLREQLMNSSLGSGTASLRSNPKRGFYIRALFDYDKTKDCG

binding result: binds
B1: GST/NBCn1 fusion protein containing the C‐terminal 26 amino acids of rat NBCn1 (domain or fragment, UniProt Q9R1N3-2 1229-1254, looked up)
chain: PEKPVSVTINFEDEPSKKYMDAETSL
notes: NBCn1 (SLC4A7), rat, the C-terminal 26 amino acids; also called C‐terminal domain of NBCn1 fused to GST; source: prepared as described previously (Lee et al. 2012)
